What was measured:
[1] = biological target: VcaM4I HNH domain H224A variant (residues 179-309) (Vibrio campbellii); assay: SEC; Superdex 75 10/300 GL, 15 mM Tris-HCl (pH 8.5), 0.3 M NaCl, 1 mM TCEP; bovine serum albumin, ovalbumin, myoglobin and vitamin B12 as molecular mass standards
[2] = biological target: VcaM4I Helix-HNH fragment (residues 148-309) (Vibrio campbellii); assay: as above

VcaM4I HNH domain H224A variant (residues 179-309) (domain or fragment)
stoichiometry N [1]: 2

VcaM4I Helix-HNH fragment (residues 148-309) (domain or fragment)
stoichiometry N [2]: 2

From article PMC7897488
